The record followed here is patent US20150010566A1.

Holding throughout (assay): cell-based or functional assay
The target in assay [1] is HA of low pathogenic H7N1 (A/Ch/Italy/1067/1999), on infected MDCK cells or on virus (Influenza A virus H7N1 A/Ch/Italy/1067/1999 (host Chicken)).
Assay [2] addresses HA of high pathogenic H7N7 (A/Ch/Neth/621557/03), on infected MDCK cells or on virus (Influenza A virus H7N7 A/Ch/Neth/621557/03 (host Chicken)).
The target of assay [3] is HA of Influenza H1N1 (A/Neth/602/2009), on infected MDCK cells or on virus (Influenza A virus H1N1 A/Neth/602/2009 (host Human)).
In assay [4] the target is HA of H5N1 A/turkey/Turkey/05 virus (Influenza A virus H5N1 A/turkey/Turkey/05).
In assay [5] the target is HA of Influenza H3N2 (A/Swine/St. Oedenrode/1996), on infected MDCK cells or on virus (Influenza A virus H3N2 A/Swine/St. Oedenrode/1996 (host Swine)).

Regarding CR8020 (antibody), the IC50, in vitro virus neutralization on MDCK cells in assay [1] is greater than 15 µg/mL; in assay [2], 0.6 µg/mL; in assay [3], greater than 15 µg/mL; in assay [4], greater than 15 µg/mL; in assay [5], greater than 15 µg/mL.
